One test concerns the target T1, rNPR1-ANP complex (rat, UniProt P01160 124-151 (human entry), limits assumed).
T1 construct: rNPR1 antigen in the presence of ANP; also called rNPR1 + 100 nM ANP
T1 sequence: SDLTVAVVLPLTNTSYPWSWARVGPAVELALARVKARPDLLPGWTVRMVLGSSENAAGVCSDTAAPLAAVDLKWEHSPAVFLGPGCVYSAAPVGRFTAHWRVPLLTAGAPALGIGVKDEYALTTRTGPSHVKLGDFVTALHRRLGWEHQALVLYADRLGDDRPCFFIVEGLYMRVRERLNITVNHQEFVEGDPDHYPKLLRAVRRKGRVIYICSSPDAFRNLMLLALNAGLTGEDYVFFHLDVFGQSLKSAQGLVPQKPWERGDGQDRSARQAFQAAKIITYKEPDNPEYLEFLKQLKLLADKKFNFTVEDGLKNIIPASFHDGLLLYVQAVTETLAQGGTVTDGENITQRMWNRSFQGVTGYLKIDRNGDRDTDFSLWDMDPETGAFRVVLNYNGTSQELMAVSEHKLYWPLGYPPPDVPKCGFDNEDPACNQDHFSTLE
T1 sequence (peptide): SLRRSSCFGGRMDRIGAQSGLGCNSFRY
Nature of the test: ELISA, 1 µM IgG. Also noted: unit not given here. A general note: ELISA stands for enzyme-linked immunosorbent assay.

Test [1] has as its target T2, human Natriuretic Peptide Receptor 1 (hNPR1) (human, UniProt P16066 33-473, limits assumed).
T2 construct: pannings used NPR1-hFc; also called NPR1-hFc
T2 sequence: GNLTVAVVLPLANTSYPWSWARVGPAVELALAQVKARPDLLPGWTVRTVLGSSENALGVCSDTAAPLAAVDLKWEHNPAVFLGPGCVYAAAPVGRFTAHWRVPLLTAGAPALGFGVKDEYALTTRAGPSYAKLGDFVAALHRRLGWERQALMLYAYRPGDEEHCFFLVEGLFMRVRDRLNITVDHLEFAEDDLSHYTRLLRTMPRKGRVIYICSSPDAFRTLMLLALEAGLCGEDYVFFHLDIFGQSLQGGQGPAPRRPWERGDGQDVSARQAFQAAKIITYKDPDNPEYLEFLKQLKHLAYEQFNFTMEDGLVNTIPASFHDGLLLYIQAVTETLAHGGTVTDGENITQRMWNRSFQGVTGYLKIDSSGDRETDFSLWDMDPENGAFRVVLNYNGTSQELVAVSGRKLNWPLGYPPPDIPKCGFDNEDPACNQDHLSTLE
Nature of the test: FRET ANP competition assay: IgG titrated on NPR1, Eu-labeled donor, Cy5-labeled ANP as the competed ligand [Cont.]. On the procedure: The same 31 IgGs were tested for ANP competition using a Fluorescence Resonance Energy Transfer (FRET)-based assay in which the NPR1-specific antibodies competed with ANP for binding to NPR1. In this FRET based assay (see FIG. 3), Eu-labeled Streptavidin (for measurement of IgGs) or Eu-labeled anti-hFc antibody (for measurement of FabCys) was used as an energy donor, while Cy5-labeled ANP was used as an acceptor (for all measurements). The resulting fluorescent signal was decreased by ANP-competitive antibodies. The assay was performed as follows: antibodies were mixed with NPR1 and incubated for 5 minutes at room temperature. After addition of the Eu-labeled donor and incubation for 30 minutes at room temperature, the Cy5-ANP solution was added. After a further 60-minute incubation, readout was performed using a TECAN Infinite M1000 Pro using an excitation wavelength of 317 nm and an emission wavelength of 665 nm. Percentage of ANP competition was calculated according to the following formulae: […]
All 92 FabCys and 24 IgGs were tested for binding to relevant antigens via ELISA and relevant cell lines by flow cytometry. […] Eight functional candidates were identified and analyzed for specificity in the Protein Panel Profiling assay (3P assay) in IgG format. For comparison, one of the functional candidates from the initial campaign (WW03) was analyzed. […]

The target in another test is T3, rNPR1-ANP complex (rat).
T3 sequence: T1 sequence
T3 sequence (peptide): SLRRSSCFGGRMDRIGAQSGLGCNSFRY
Nature of the test: ELISA, 1 µM IgG.

Test [2] deals with T2, human Natriuretic Peptide Receptor 1 …. Nature of the test: ELISA, IgG titrated on coated antigen, fluorescence [Cont.].
In a further test the target is T4, hNPR1-ANP complex (human, UniProt P01160 124-151, limits assumed).
T4 construct: hNPR1 antigen in the presence of ANP; also called hNPR1 + 100 nM ANP
T4 sequence: T2 sequence
T4 sequence (peptide): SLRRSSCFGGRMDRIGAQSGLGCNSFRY
Nature of the test: ELISA, IgG titrated on coated antigen with ANP (250 fold molar excess), fluorescence [Cont.].

Test [3] concerns the target W74R hNPR1 mutant in the presence of ANP (human) (UniProt P01160). The test is described as above.

The record followed here is patent US20240052042A1 (Novartis, published 2024).

B1: YY07 (IgG format) (antibody, V domains shown)
VH: EVQLVQSGAEVKKPGESLKISCKGSGYSFTSYWISWVRQMPGKGLEWMGIIYPGTSYTRYSPSFQGQVTISADKSISTAYLQWSSLKASDTAMYYCARGSLPGLLGFDHWGQGTLVTVSS
VL: QSVLTQPPSVSGAPGQRVTISCTGSSSNIGAGYDVHWYQQLPGTAPKLLIYGNSNRPNGVPDRFSGSKSGTSASLAITGLQAEDEADYYCQSYDSPTSSSVFGGGTKLTVLG
notes: also called YY07_LALA
Take B1: the “ELISA binding at 1 µM IgG” value with rNPR1-ANP complex turned out to be 3.

B2: YY06 (IgG format) (antibody, V domains shown)
VH: EVQLLESGGGLVQPGGSLRLSCAASGFTFSSYAISWVRQAPGKGLEWVSAISGSGGSTYYAESVKGRFTISRDNSKNTLYLQMNSLRAEDTAVYYCARPYLGDRRSYGFDHWGQGTLVTVSS
VL: QSALTQPASVSGSPGQSITISCTGTSSDVGSYNLVSWYQQHPGKAPKLMIYEGSKRPSGVSNRFSGSKSGNTASLTISGLQAEDEADYYCSSYGFHIVVVVFGGGTKLTVLG
notes: also called YY06_LALA
For B2, the “IC50 (read off the curve)” value in test [1] was about 4 nM. Further, the ELISA binding at 1 µM IgG with rNPR1-ANP complex (rat) was found to be 4. Further, the results for the half-maximal effective concentration (EC50 (read off the curve)) (in test [2]; with hNPR1-ANP complex; in test [3]) were about 7 nM, about 7 nM and 20 nM, respectively.

A word on the EC50 (read off the curve): it is the concentration that produces a half-maximal response.
